From PMC6281676 (Scientific Reports, 2018)

What was measured:
[1] = Appearance of mixed solution of peptide drug and penetratin; format: physicochemical; details: peptide drug 2.5 mg/mL plus L- or D-penetratin 2.0 mM in PBS pH 6.0 with 0.001% methylcellulose; visual
[2] = 15 min after 30th intranasal administration of exendin-4 1 mg/mL, L-penetratin 2 mM and insulin 8 IU/mL (1 IU/kg)
Method: (§1) Every morning at 10 AM, mice were anesthetized by an i.p. injection of sodium pentobarbital (50 mg/kg), and restrained in a supine position. […] The untreated control SAMP8 and SAMR1 received intranasal administration of only the vehicle (PBS pH 6.0). After each administration, mice were kept in a supine position for 15 min and then returned to their cages.

[3] = up to 60 min after 29th intranasal administration of exendin-4 and insulin with L-penetratin; tail vein, glucose meter
Method: as §1
Blood was obtained from the tail vein before and 15, 30, and 60 min after administration, and the blood glucose concentration was measured using a glucose meter (One Touch Ultra View, Johnson & Johnson K.K., Tokyo, Japan).

[4] = tested on: hippocampal neuronal cells; assay: Immunohistological staining of brain specimens with anti-NeuN antibody (neuronal cell counts); format: in vivo, SAMP8 mice; details: after 30th intranasal administration of exendin-4 ± L-penetratin ± insulin; 38 weeks of age; n = 4–8
Method: At 15 min after administration, blood samples were taken from the left jugular vein. Immediately after blood withdrawal, the abdominal cavity was opened, and the intravascular content in the brain was flushed by perfusion of ice-cold PBS (pH 7.4) into the left ventricle of the heart at 5.5 mL/min for 5 min using a peristaltic pump (ATTO Corp.). Right afterwards, the brain was fixed by perfusion of ice-cold 4% PFA into the brain at 5.5 mL/min for 10 min. Subsequently, the whole brain was carefully isolated and washed with ice-cold PBS (pH 7.4) and weighed after removal of the water content.
The right side of the brain obtained as described above was immersed in 4% PFA for 24 h and then moved to ice-cold PBS (pH 7.4) and stored at 4 °C. After removing the PBS, the brain was trimmed coronally to obtain 3-mm slices at the position of Bregma −1.5 mm. […]
A thin slice at Bregma −2.0 mm was obtained and mounted on a glass slide, deparaffinized, and immersed in citrate buffer for 40 min in a water bath at 98 °C to activate the antigen. […] The stained brain tissue was observed by microscopy (Olympus BX51 and DP71), and the NeuN-positive cell numbers in the hippocampus were analyzed using WinROOF (Mitani Corp., Tokyo, Japan). […]

Row | Substance | appearance of solution after mixing [1] | insulin level in plasma ([2]; ELISA, mean ± SEM) [μU/mL] | brain concentration of insulin ([2]; human insulin ultrasensitive ELISA) | blood glucose level [3] [mg/dL] | NeuN-positive hippocampal neuronal cell counts [4]
1 | HAEGTFTSDVSSYLEGQAAKEFIAWLVKGR-NH2 [GLP-1, glucagon-like peptide-1, incretin peptide, synthesized by Sigma-Genosys] | clear |  |  |  | 
2 | insulin: Recombinant human insulin (27.5 IU/mg), Wako |  | 41.1 ± 11.8 | less than the lower detection limit | > 70 | no proliferation effect
